Consider one molecule from US20240309051A1, “[…] T (TFH) CELLS […] TO SARS-COV-2 VIRUS” (priority 2021, published 2024).

The test deals with T1, SARS-COV-2 S protein, S867-881 peptide with residue 3 (Q) of SEQ ID NO: 13 replaced with alanine peptide on … (human).
T1 peptide: DEMIAAYTSALLAGT
As to the kind of experiment: activation reporter or marker.

B1: Clone 1 (TCR-017) (TCR)
alpha TRAV12-1 TRAJ12 CDR3: CVVNRGSSYKLIF
beta TRBV11-2 TRBJ2-7 CDR3: CASSQTYEQYF
In the case of B1, the binding result is “no recognition”.
